Assay results published in patent US6525022B1, “Receptor specific atrial natriuretic peptides” (Genentech, Inc., priority 1993, dated 2003).
Where a SMILES comes first, the peptide text is derived from it. Bridges are numbered along the chain shown (N, C = ends).

Assays:
[1] = target: T1, hNPR-A (Homo sapiens, UniProt P16066); assay: Competition binding to hNPR-A (Table I, FIG. 5)
T1 sequence (P16066 33-1061): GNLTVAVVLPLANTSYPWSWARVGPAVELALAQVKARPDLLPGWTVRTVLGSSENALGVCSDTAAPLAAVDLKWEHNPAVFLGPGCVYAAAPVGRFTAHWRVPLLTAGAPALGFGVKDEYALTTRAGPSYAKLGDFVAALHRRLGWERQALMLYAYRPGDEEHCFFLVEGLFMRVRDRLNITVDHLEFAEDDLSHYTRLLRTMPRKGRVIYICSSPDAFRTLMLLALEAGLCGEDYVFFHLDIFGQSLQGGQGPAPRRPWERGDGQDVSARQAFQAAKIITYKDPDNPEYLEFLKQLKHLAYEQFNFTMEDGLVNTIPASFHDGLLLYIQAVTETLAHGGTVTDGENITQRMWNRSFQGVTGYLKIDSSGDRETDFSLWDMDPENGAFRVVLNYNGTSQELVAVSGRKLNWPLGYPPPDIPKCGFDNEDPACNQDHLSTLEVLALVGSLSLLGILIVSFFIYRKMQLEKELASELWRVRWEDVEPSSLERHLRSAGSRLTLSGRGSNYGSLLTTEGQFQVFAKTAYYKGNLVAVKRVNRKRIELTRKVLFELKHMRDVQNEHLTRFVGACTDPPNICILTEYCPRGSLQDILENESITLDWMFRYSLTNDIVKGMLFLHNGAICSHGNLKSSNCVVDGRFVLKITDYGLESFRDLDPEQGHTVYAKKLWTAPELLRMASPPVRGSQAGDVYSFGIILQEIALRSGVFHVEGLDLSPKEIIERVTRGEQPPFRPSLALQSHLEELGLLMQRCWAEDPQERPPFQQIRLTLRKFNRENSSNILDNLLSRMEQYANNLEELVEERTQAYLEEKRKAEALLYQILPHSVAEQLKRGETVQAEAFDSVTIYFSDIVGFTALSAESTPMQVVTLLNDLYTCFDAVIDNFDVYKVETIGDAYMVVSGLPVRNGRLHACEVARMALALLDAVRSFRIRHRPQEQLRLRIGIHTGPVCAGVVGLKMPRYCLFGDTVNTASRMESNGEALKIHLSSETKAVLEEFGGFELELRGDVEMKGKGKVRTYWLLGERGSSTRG

[2] = target: T2, hNPR-C (Homo sapiens, UniProt P17342); assay: Competition binding to hNPR-C (Table I, FIG. 5)
T2 sequence (P17342 27-541): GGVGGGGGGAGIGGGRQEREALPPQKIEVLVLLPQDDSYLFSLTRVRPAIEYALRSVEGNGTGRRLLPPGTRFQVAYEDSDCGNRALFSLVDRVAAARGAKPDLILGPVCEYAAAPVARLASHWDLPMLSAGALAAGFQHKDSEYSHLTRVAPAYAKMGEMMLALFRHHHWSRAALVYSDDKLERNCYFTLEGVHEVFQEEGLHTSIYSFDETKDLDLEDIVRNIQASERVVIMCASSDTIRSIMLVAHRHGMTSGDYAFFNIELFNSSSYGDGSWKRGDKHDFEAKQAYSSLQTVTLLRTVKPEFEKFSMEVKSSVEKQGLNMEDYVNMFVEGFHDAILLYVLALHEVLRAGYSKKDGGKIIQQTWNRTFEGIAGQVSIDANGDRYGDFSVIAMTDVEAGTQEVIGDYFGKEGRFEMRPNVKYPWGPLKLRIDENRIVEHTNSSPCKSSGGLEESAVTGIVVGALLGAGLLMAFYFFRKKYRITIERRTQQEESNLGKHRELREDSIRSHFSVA

[3] = target: human NEP (hNEP), endopeptidase 24.11 (Homo sapiens, UniProt P08473); assay: Degradation of ANF variants by human NEP, half-life by HPLC; details: isolated human NEP (endopeptidase 24.11) in HEPES buffer, Half-Life (min.), FIG. 7: ANF variants 32 nM/ml, NEP 0.45 μg/ml
Sequence of human NEP (hNEP), endopeptidase 24.11 (P08473 whole entry): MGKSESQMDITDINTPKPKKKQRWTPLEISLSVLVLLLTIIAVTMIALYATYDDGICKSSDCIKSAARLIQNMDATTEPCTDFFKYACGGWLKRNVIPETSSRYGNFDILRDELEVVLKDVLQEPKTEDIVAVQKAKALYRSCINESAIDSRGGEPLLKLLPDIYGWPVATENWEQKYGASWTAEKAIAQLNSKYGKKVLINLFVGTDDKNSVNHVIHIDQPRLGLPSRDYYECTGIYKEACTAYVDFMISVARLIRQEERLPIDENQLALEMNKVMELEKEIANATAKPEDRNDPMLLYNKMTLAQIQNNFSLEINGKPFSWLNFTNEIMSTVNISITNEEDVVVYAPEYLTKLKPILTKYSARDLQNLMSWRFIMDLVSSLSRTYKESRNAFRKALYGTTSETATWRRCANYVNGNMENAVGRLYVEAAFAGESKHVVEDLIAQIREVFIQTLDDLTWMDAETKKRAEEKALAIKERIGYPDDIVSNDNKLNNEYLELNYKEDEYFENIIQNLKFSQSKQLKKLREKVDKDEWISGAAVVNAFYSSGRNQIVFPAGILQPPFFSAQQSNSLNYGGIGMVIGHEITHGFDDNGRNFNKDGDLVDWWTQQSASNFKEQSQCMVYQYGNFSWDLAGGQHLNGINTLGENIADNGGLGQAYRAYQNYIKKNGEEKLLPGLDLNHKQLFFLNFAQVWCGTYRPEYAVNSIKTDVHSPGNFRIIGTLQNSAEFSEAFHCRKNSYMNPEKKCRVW
Protocol: The half-life of various ANF variants was measured according to the following procedure.
ANF Solution: An accurately weighed amount of ANF or variant thereof was diluted with HEPES buffer (5 ml of 1 M HEPES Buffer and 0.1 ml of Tween 20 diluted to a 100 ml volume with DI water) to make a 0.5 mg/ml solution.
hNEP/HEPES Solution: 7.5 μl of a 1 mg/ml solution of hNEP (see U.S. Pat. No. 4,960,700) is dissolved in 992.5 μl of HEPES buffer (as described above) and vortex mixed. The resulting mixture is stored in a silylated Eppendorf tube and periodically checked for activity against an ANF peptide standard.
Assay conditions: 150 μl of an ANF solution in the HEPES buffer is diluted with 820 μl HEPES buffer and vortex mixed (1 sec). Careful note of the time is taken as 30 μl of the hNEP/HEPES solution is added and the solution is vortex mixed for 1 sec. and analyzed by periodic removal of constant volume aliquots by the HPLC autosampler. A 2.5 cm×50 cm, C-18 reversed-phase column (15 micron, 300 Å]) was used and elution was achieved by using a shallow gradient of increasing acetonitrile. The elution conditions consisted of a 10% to 50% acetonitrile (containing 0.1% TFA) gradient at 0.5% min.^−1. The aqueous phase was 0.1% TFA in water. The peak area of the ANP peptide is recorded at these periodic intervals and a half-life is determined from these values.

[4] = target: human neutral endopeptidase 24.11 (human) (UniProt P08473); assay: cell-based or functional assay
[5] = target: T3, human natriuretic peptide clearance receptor-C (human), P17342; assay: competition binding, Table I; tracer and receptor format not given
T3 chain: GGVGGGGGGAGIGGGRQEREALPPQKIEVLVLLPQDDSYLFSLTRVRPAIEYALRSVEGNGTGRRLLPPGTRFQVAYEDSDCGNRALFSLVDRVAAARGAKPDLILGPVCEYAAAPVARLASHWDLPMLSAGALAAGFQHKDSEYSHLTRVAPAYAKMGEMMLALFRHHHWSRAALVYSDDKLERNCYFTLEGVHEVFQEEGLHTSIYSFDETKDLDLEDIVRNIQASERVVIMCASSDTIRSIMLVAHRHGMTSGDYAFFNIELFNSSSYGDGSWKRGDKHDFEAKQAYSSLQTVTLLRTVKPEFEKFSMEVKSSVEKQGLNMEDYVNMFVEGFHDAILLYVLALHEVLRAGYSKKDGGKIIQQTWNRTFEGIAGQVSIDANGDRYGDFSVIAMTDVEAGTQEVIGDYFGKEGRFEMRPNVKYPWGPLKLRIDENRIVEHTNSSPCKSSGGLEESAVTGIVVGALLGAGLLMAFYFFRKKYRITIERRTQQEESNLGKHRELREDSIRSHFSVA

CC[C@H](C)[C@@H]1NC(=O)[C@H](CCCNC(=N)N)NC(=O)[C@H](CC(=O)O)NC(=O)[C@H](CCSC)NC(=O)[C@H](CO)NC(=O)[C@H](CCCCN)NC(=O)CNC(=O)[C@H](Cc2ccccc2)NC(=O)[C@@H](NC(=O)[C@H](CO)NC(=O)[C@H](CO)NC(=O)[C@H](CCCNC(=N)N)NC(=O)[C@H](CCCNC(=N)N)NC(=O)[C@H](CC(C)C)NC(=O)[C@@H](N)CO)CSSC[C@@H](C(=O)N[C@@H](CC(N)=O)C(=O)N[C@@H](CO)C(=O)N[C@@H](Cc2ccccc2)C(=O)N[C@@H](CCCNC(=N)N)C(=O)N[C@@H](Cc2ccc(O)cc2)C(=O)O)NC(=O)CNC(=O)[C@H](CC(C)C)NC(=O)CNC(=O)[C@H](CO)NC(=O)[C@H](CCC(N)=O)NC(=O)[C@H](C)NC(=O)CNC1=O [ANF 60] (H-SLRRSSCFGKSMDRIGAQSGLGCNSFRY-OH; disulfide 7-23; C-terminus assumed)
IC50 ([1]; read-out: Binding Affinity IC50(pM) hNPR-A): 112 pM
IC50 ([2]; read-out: Binding Affinity IC50(pM) hNPR-C): 5980 pM
half-life at 32 nM/ml [3]: 5.07 h

hANF(1-28) G16R (SLRRSSCFGGRMDRIRAQSGLGCNSFRY) [hANF with the single substitution of arginine for glycine at position 16]
Effect of substitution on NPR-A binding ([1]; relative to wild type): negligible effect
Reduction of NPR-C affinity ([2]; relative to wild type): about 150 fold

ANF 28 (peptide)
Half-Life [4]: 9.52 h

ANF 40 (peptide)
Half-Life [4]: 9.95 h

SLRRSSCFAGSIDRIRAQSGLGCNSFRY (modifications not checked) [ANF 78]
IC50 [5]: 8.64 nM
